Results: patent US20250002593A1 (INMAGENE PTE, published 2025)
Where two headings read alike, the source gives them in different places.

T1: Recombinant hIL-36R protein (Acrobio, Cat #IL2-H52H6) (human, UniProt Q9HB29 20-335)
T1 construct: Bought soluble protein; also called recombinant human IL-36R protein
T1 sequence: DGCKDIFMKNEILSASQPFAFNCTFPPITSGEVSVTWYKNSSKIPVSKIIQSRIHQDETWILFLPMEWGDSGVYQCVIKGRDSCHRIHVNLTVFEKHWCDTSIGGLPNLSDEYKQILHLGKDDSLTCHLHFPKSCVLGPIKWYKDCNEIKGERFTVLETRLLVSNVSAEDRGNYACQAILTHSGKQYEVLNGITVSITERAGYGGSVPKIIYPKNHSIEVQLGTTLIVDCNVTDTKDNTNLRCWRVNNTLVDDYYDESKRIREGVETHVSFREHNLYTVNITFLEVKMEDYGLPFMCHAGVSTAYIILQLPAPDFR

T2: membrane hIL-36R (human, UniProt Q9HB29 20-575)
T2 sequence: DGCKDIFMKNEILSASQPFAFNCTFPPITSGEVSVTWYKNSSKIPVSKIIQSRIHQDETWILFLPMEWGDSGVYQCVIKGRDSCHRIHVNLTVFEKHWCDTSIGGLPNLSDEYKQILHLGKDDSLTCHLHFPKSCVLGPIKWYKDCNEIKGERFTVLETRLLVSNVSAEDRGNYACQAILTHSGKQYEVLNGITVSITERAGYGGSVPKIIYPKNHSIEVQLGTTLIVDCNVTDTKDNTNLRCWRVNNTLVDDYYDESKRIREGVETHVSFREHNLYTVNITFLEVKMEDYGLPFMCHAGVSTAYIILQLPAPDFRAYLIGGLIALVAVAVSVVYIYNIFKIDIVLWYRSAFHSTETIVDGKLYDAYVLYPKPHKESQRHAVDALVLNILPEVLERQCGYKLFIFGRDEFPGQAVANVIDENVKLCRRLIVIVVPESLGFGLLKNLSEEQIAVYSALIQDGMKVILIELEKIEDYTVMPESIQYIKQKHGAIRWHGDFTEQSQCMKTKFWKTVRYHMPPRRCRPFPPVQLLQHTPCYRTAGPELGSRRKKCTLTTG


Assays:
[1] = target: T1, Recombinant hIL-36R protein (Acrobio, …); assay: BLI (Gator), antibody on Protein A sensor, hIL-36R analyte; stands under the head koff(1/Ms), read as kon from KD = koff/kon
Protocol: (§1) Antibodies was immobilized onto Protein A biosensor after balance. A baseline was detected for 60 seconds. And then antibody-antigen association was detected for 180 seconds to get the Kon factor data. Followed by dissociation in kinetic buffer for 180 seconds to get the Koff factor data. The regeneration of biosensors was in buffer 10 mM glycine, pH2.0. All the kinetics data were collected at 30° C. Data were acquired with Gator Bioanalysis System.

[2] = target: T1, Recombinant hIL-36R protein (Acrobio, …); assay: BLI (Gator), antibody on Protein A sensor, hIL-36R analyte
Protocol: as §1

[3] = target: T1, Recombinant hIL-36R protein (Acrobio, …); assay: BLI (Gator), antibody on Protein A sensor, hIL-36R analyte; stands under the head kon(1/s), read as koff from KD = koff/kon
Protocol: as §1

[4] = target: T1, Recombinant hIL-36R protein (Acrobio, …); assay: BLI (Gator)
Protocol: as §1

membrane hIL-36R [5] = target: T2, membrane hIL-36R; assay: cell-based or functional assay
[6] = target: T1, Recombinant hIL-36R protein (Acrobio, …); assay: BLI as in Example 2, antibody on Protein A sensor, hIL-36R analyte
Protocol: as §1

membrane hIL-36R [7] = target: T2, membrane hIL-36R; assay: cell-based or functional assay; remark: listed apart in the source

| Binder | kon [1] | Kd [2] | koff [3] | Kd [4] | kon [4] | other results |
| --- | --- | --- | --- | --- | --- | --- |
| 10F6 (antibody, V domains shown, Mouse variable regions, recombinantly expressed) VH: QVQLQQSGAELVKPGASVRLSCKASGYTFTEFTIHWVKQRSGQGLEWIGWFYPGSDFIKYNEKFKDKATLTADKSSNTVYMELLRLTSEDSAVYFCARHEDRLSDYSYEWYFDVWGAGTAVTVSS VL: DIQMTQSPASLSASVGETVTITCRASENIDSYLAWYQQKQGKSPQLLVYGATLLADGVPSRFSGSGSGTQYSLKINSLQSEDVAEYFCQHYYSIPLTFGAGTKLELK | 152000 M⁻¹ s⁻¹ | 0.901 nM | 0.000137 s⁻¹ |  |  |  |
| 1A21 (antibody, V domains shown, Mouse variable regions, recombinantly expressed) VH: EVQLQQSGPELVKPGDSVKISCKASGYSFTGYFMNWVMQSHGKSLEWIGRINPYNGDTFYNQKFKGKATLTVDKSSSTAHMELRSLTSEDSAVYYCAGLGHWYFDVWGTGTTVTVSS VL: DIVMTQSTLSLPVSLGDQASISCRSSQSIVHSNGNTYLEWYLQKPGQSPKLLIYKVSNRFSGVPDRFSGSGSGTDFTLKISRVEAEDLGVYYCFQGSHVPWTFGGGTKLEIK | 74900 M⁻¹ s⁻¹ | 0.536 nM | 4.01e-05 s⁻¹ |  |  |  |
| 5F7-2a6 (antibody, human IgG4 S228P, kappa, V domains shown) VH: EVQLVESGGGLVKPGGSLRLSCAASGFDFTDYYMNWVRQAPGKGLEWVALIRNKAAGYTIYYSAPVKGRFTISRDDSKSTLYLQMNSLKTEDTAVYYCVRDMTIYDGYYVDYALDYWGQGTLVTVSS VL: DIVMTQSPSSVSASVGDRVTITCRASRNINIWLSWYQQKPGKAPKLFIYKASNLHTGVPSRFSGSGSGTDFTLTISSLQPEDFATYYCLQSQSYPLTFGQGTKLEIKR |  |  |  | < 0.1 nM | 39800 M⁻¹ s⁻¹ | IC50, IL-36R reporter assay: inhibition of ligand induced luminescence in Jurkat-IL36R-IL1Racp-NFkB-luc cells (membrane hIL-36R [5]): 0.0228 µg/mL |
| 5F7-hu-5 (antibody, V domains shown, Humanized 5F7; also called humanized 5F7) VH: EVQLVESGGGLVKPGGSLRLSCAASGFAFTDYYMNWVRQAPGKGLEWVALIRNKAAGYTIYYSAPVKGRFTISRDDSKSTLYLQMNSLKTEDTAVYYCVRDMTIYDGYYVDYALDYWGQGTLVTVSS VL: DIVMTQSPSSVSASVGDRVTITCRASQNINIWLSWYQQKPGKAPKLFIYKASNLHTGVPSRFSGSGSGTDFTLTISSLQPEDFATYYCLQSQSYPLTFGQGTKLEIK |  |  |  |  |  | Kd [6]: 6.28 nM; koff [6]: 0.000294 s⁻¹; kon [6]: 46700 M⁻¹ s⁻¹; IC50, IL-36R reporter assay: inhibition of ligand induced luminescence in Jurkat-IL36R-IL1Racp-NFkB-luc cells (membrane hIL-36R [7]): 0.0781 µg/mL |
| 5F7-2g10 (antibody, human IgG4 S228P, kappa, V domains shown) VH: EVQLVESGGGLVKPGGSLRLSCAASGFAFTDYYLSWVRQAPGKGLEWVALIRNKAAGYTIYYSAPVKGRFTISRDDSKSTLYLQMNSLKTEDTAVYYCVRDMTIYDGYYVDYALDYWGQGTLVTVSS VL: DIVMTQSPSSVSASVGDRVTITCRASRNINIWLSWYQQKPGKAPKLFIYKASNLHTGVPSRFSGSGSGTDFTLTISSLQPEDFATYYCLQSQSYPLTFGQGTKLEIKR |  |  |  | 0.638 nM | 28900 M⁻¹ s⁻¹ | koff [4]: 1.84e-05 s⁻¹ |
| 5F7-2h1 (antibody, human IgG4 S228P, kappa, V domains shown) VH: EVQLVESGGGLVKPGGSLRLSCAASGYAFTDYYMNWVRQAPGKGLEWVALIRNKAAGYTIYYSAPVKGRFTISRDDSKSTLYLQMNSLKTEDTAVYYCVRDMTIYDGYYVDYALDYWGQGTLVTVSS VL: DIVMTQSPSSVSASVGDRVTITCRASRNINIWLSWYQQKPGKAPKLFIYKASNLHTGVPSRFSGSGSGTDFTLTISSLQPEDFATYYCLQSQSYPLTFGQGTKLEIKR |  |  |  | < 0.1 nM | 41000 M⁻¹ s⁻¹ |  |
| 5F7-2d3 (antibody, human IgG4 S228P, kappa, V domains shown) VH: EVQLVESGGGLVKPGGSLRLSCAASGFNFTDYYMNWVRQAPGKGLEWVALIRNKAAGYTIYYSAPVKGRFTISRDDSKSTLYLQMNSLKTEDTAVYYCVRDMTIYDGYYVDYALDYWGQGTLVTVSS VL: DIVMTQSPSSVSASVGDRVTITCRASRNINIWLSWYQQKPGKAPKLFIYKASNLHTGVPSRFSGSGSGTDFTLTISSLQPEDFATYYCLQSQSYPLTFGQGTKLEIKR |  |  |  | 2.46 nM | 35900 M⁻¹ s⁻¹ | koff [4]: 8.83e-05 s⁻¹ |
| 5F7-2c4 (antibody, human IgG4 S228P, kappa, V domains shown) VH: EVQLVESGGGLVKPGGSLRLSCAASGFAFTDYYLRWVRQAPGKGLEWVALIRNKAAGYTIYYSAPVKGRFTISRDDSKSTLYLQMNSLKTEDTAVYYCVRDMTIYDGYYVDYALDYWGQGTLVTVSS VL: DIVMTQSPSSVSASVGDRVTITCRASRNINIWLSWYQQKPGKAPKLFIYKASNLHTGVPSRFSGSGSGTDFTLTISSLQPEDFATYYCLQSQSYPLTFGQGTKLEIKR |  |  |  | 2060 nM | 203 M⁻¹ s⁻¹ | koff [4]: 0.000418 s⁻¹ |
| 5F7-hu-2 (antibody, V domains shown, Humanized 5F7; also called humanized 5F7) VH: QVQLQESGGGLVKPGGSLRLSCAASGFAFTDYYMNWIRQAPGKGLEWVSLIRNKAAGYTIYYADSVKGRFTISRDNAKSSLYLQMNSLRAEDTAVYYCVRDMTIYDGYYVDYALDYWGQGTLVTVSS VL: EIVMTQSPATLSVSPGERATLSCRASQNINIWLSWYQQKPGQAPRLFIYKASNLHTGVPARFSGSGSGTEFTLTISSLQSEDFAVYYCLQSQSYPLTFGQGTKLEIK |  |  |  |  |  | Kd [6]: 6.86 nM; koff [6]: 0.000233 s⁻¹; kon [6]: 34000 M⁻¹ s⁻¹; IC50, IL-36R reporter assay: inhibition of ligand induced luminescence in Jurkat-IL36R-IL1Racp-NFkB-luc cells (membrane hIL-36R [7]): 0.086 µg/mL |
| 1C11 (antibody, V domains shown, Mouse variable regions, recombinantly expressed) VH: EVQVQQSGTELVKPGASVKLSCKASGYTFTNYWLHWVKQRPGQGLEWIGNINPSNGGTNYNEKFKTKATLTVDKSSSTAYMQLSSLTSEDSAVYYCARYSTGFAYWGQGTLVTVSA VL: DIVLTQTTASLAVSLGQRATISCRASESVDTYGASFMHWYQQKPGQPPKLLIYRASNLESGIPARFSGSGSRTDFTLTVNPVEADDVATYYCQQSNEDPRTFGGGTKLEIK | 63800 M⁻¹ s⁻¹ | 13.7 nM | 0.000872 s⁻¹ |  |  |  |
| 1J3 (antibody, V domains shown, Mouse variable regions, recombinantly expressed) VH: QVQLEQSGGDLVKPGGSLKLSCAASGFTFSSYGMSWVRQTPDKRLEWVATISSYGSYTSYPDTVKGRFTISRDNAKNTLYLQMSSLKSEDTAMYYCARPDYYVSTGFDYWGQGTTLTVSS VL: DIVITQSTATLSVTPGDRVSLSCRASQSISDYLHWYQQKSHESPRLLIKYASQSISGIPSRFSGSGSGSDFTLSINSVEPEDVGVYYCQNGHSFPFTFGSGTKLEIK | 73200 M⁻¹ s⁻¹ | 0.597 nM | 4.37e-05 s⁻¹ |  |  |  |

Further lines, with some results ahead:

| kon [1] | Kd [2] | koff [3] | Kd [4] | kon [4] | Binder | other results |
| --- | --- | --- | --- | --- | --- | --- |
|  |  |  | < 0.1 nM | 32500 M⁻¹ s⁻¹ | 5F7-2a1 (antibody, human IgG4 S228P, kappa, V domains shown) VH: EVQLVESGGGLVKPGGSLRLSCAASGFDFTDYYMHWVRQAPGKGLEWVALIRNKAAGYTIYYSAPVKGRFTISRDDSKSTLYLQMNSLKTEDTAVYYCVRDMTIYDGYYVDYALDYWGQGTLVTVSS VL: DIVMTQSPSSVSASVGDRVTITCRASRNINIWLSWYQQKPGKAPKLFIYKASNLHTGVPSRFSGSGSGTDFTLTISSLQPEDFATYYCLQSQSYPLTFGQGTKLEIKR | IC50, IL-36R reporter assay: inhibition of ligand induced luminescence in Jurkat-IL36R-IL1Racp-NFkB-luc cells (membrane hIL-36R [5]): 0.0195 µg/mL |
| 79800 M⁻¹ s⁻¹ | 4.03 nM | 0.000321 s⁻¹ |  |  | 10D12 (antibody, V domains shown, Mouse variable regions, recombinantly expressed) VH: QVQLQQPGTELVKPGASVKLSCKASGYTFTRYWMHWVRQRPGQGLEWIGNINPNIGRANYNEKFKNKATLTVDKSSSTAYMQLSSLTSEDSAVYYCARPGETTDYWGQGTTLTVSS VL: not shown |  |
| 79400 M⁻¹ s⁻¹ | 10 nM | 0.000795 s⁻¹ |  |  | 9C12 (antibody, V domains shown, Mouse variable regions, recombinantly expressed) VH: EVQLQQSGPELVKPGASVKMSCKASGYTFTDYHMNWVKRSPGKSLEWIGRINPDYGDARYDQKFKGKATLTVDKSLSTAYMQLNRLTYEDSAVYYCARDGYYVFDYWGQGSTLTVSS VL: DIVMTQAAFSNPVSLGTSASISCRSSKSLLHSDGITYLSWYLQRPGQSPQLLIYRMSNLVSGVPDRFSGSGSGTDFTLRISRVEAEDVGVYYCAQTLEFPLTFGAGTKLELK |  |
| 91700 M⁻¹ s⁻¹ | 0.00631 nM | 5.79e-07 s⁻¹ |  |  | 9H11 (antibody, V domains shown, Mouse variable regions, recombinantly expressed) VH: QVQLQQSGPELVKPGASVKISCKASGYAFSHSWMNWVKQRPGKGLEWIGWIHLGDGDTYYNGKFKGKATLTADKSSSTAYMQLSSLTSEDSAVYFCARSDGNYVPYAMDYWGQGTSVTVSS VL: DIVITQTTSSLSASLGDRVTISCRASQDISNYLSWYQQKPDGTVKLLIYYTSRLHSGVPSRFSGSGSGTDYSLTISSLEQEDIATYFCQQDSEHPWTFGGGTELDVR |  |
